According to the DeepSol protein solubility set:

Assay: soluble on expression in E. coli; label from the status in PepcDB or PDB records

| Sequence | soluble on expression in E. coli |
| --- | --- |
| MEKERYFQAETEGEQPETKAEEATAAITQLGQTNVPQMDPDTNIHCLTIVGQIEGHIQLPPQNKATKYEHVIPQIVAIEQNPKIEGLLVILNTVGGDVEAGLAIAEMLASLSKPTVSVVLGGGHSIGVPIAVSCNYSFITETATMTIHPIRLTGLVIGVPQTFEYLDKMQERVVRFVTKHSKISEEKFKELMFSKGNLTRDIGTNVVGPDAVRYGLIDEVGGVSQAMAKLRELIAMRKNGEGKMIQ | not soluble |
| GAMADDAAIQQTLAKMGIKSSDIQPAPVAGMKTVLTNSGVLYITDDGKHIIQGPMYDVSGTAPVNVTNKMLLKQLNALEKEMIVYKAPQEKHVITVFTDITCGYSHKLHEQMADYNALGITVRYLAFPRQGLDSDAEKEMKAIWCAKDKNKAFDDVMAGKSVAPASCDVDIADHYALGVQLGVSGTPAVVLSNGTLVPGYQPPKEMKEFLDEHQKMTSGK | soluble |
| MLKEHSKKQHLRREVQEKLKNEAIVAAQTLSTAVVDHLNAKVAQAYGNQKRLDVEAKRFENNSAALAKQTEQWLFITEGLNYALKEIGDVENWSKTIENDMKIITETLRRAYEAKNPPLPPNQANPASH | not soluble |
| MSREDELLEKLDECENATAFLQVSNKIINLKLKALLPSVFVQDDLVKEYAVDPLLREDGPLVTTDVVSKLMFAMGKISLQTYADIGLYDQVLEYVVTQPEKIAFTDDVIYDFIKNQAVLSSQQDCFYLESINQLKFSSFESFSQMRYESLIKTVLKLSCEMLIERIEEEINQ | soluble |
| STMSGYLYRSKGSKKPWKHLWFVIKNKVLYTYAASEDVAALESQPLLGFTVTLVKDENSESKVFQLLHKGMVFYVFKADDAHSTQRWIDAFQEGTV | soluble |
| MAHHHHHHMSLQAGGVVNGVIPGVVPPHDRTQEVCKYFVNGGCLRGANCPYLHELPDERHLDVNGLGFILNPNVHNAQKTVASPQTQVAASTPSQPLKASGSSFTMMLNNQNASQSRVFSPTKAAKHQPPSMSGSSSASPQTMQMGKLPAPPKYNPPEPYLELNLPPALAFPLKVPAKDTTATLTHLMLQN | not soluble |
| MARPLVPSSQKALLLELKGLQEEPVEGFRVTLVDEGDLYNWEVAIFGPPNTYYEGGYFKARLKFPIDYPYSPPAFRFLTKMWHPNIYETGDVCISILHPPVDDPQSGELPSERWNPTQNVRTILLSVISLLNEPNTFSPANVDASVMYRKWKESKGKDREYTDIIRKQVLGTKVDAERDGVKVPTTLAEYCVKTKAPAPDEGSDLFYDDYYEDGEVEEEADSCFGDDEDDSGTEESLEHHHHHH | not soluble |
| LEPRHAMLLRCRLPGGVITTKQWQAIDKFAGENTIYGSIRLTNRQTFQFHGILKKNVKPVHQMLHSVGLDALATANDMNRNVLCTSNPYESQLHAEAYEWAKKISEHLLPRTRAYAEIWLDQEKVATTDEEPILGQTYLPRKFKTTVVIPPQNDIDLHANDMNFVAIAENGKLVGFNLLVGGGLSIEHGNKKTYARTASEFGYLPLEHTLAVAEAVVTTQRDWGNRTDRKNAKTKYTLERVGVETFKAEVERRAGIKFEPIRPYEFTGRGDRIGWVKGIDDNWHLTLFIENGRILDYPARPLKTGLLEIAKIHKGDFRITANQNLIIAGVPESEKAKIEKIAKESGLMNAVTPQRENSMACVSFPTCPLAMAEAERFLPSFIDNIDNLMAKHGVSDEHIVMRVTGCPNGCGRAMLAEVGLVGKAPGRYNLHLGGNRIGTRIPRMYKENITEPEILASLDELIGRWAKEREAGEGFGDFTVRAGIIRPVLDPARDLWD | soluble |
| MTTETRSLYSQLPAIDRLLRDSSFLSLRDTYGHTRVVELLRQMLDEAREVIRGSQTLPAWCENWAQEVDARLTKEAQSALRPVINLTGTVLHTNLGRALQAEAAVEAVAQAMRSPVTLEYDLDDAGRGHRDRALAQLLCRITGAEDACIVNNNAAAVLLMLAATASGKEVVVSRGELVEIGGAFRIPDVMRQAGCTLHEVGTTNRTHANDYRQAVNENTALLMKVHTSNYSIQGFTKAIDEAELVALGKELDVPVVTDLGSGSLVDLSQYGLPKEPMPQELIAAGVSLVSFSGDKLLGGPQAGIIVGKKEMIARLQSHPLKRALRADKMTLAALEATLRLYLHPEALSEKLPTLRLLTRSAEVIQIQAQRLQAPLVAHYGAEFAVQVMPCLSQIGSGSLPVDRLPSAALTFTPHDGRGSHLESLAARWRELPVPVIGRIYDGRLWLDLRCLEDEQRFLEMLLK | not soluble |
| MTGTYEQPVIDATYHNDDQGGHANQLVLKYVEDRKLSKVFKRICDSFKDYYNQPEDMTDEELDYQRVVSLSKSTQGKVNNRDTLIAFISDHNQLAEHLSMNYKEMTPEDLGAILESISQAFNHLYDMVVEGQLLVK | not soluble |
| MKLPVMSPEHSAQLQAFEAKILSNHAKIEAWFRTQWSVHRPPFYGSVDIRNAGYKISSIDMNLFPGGFNNLNPNFIPLAAVAAQDAVQRACETAKSVLIIPENHTRNTFYLQNVYALGEILRSAGYEVRLGSLNPEVTEPTEFETALGDKILLEPLLRTRDRVHLADGFSPCVVLLNNDLSAGIPDILKGISQTVLPPLHGGWTTRRKTNHFGAYNQVTAEFAKLIGIDEWQINPYFEKIGGLDFQGREGEDALAEAVERVLAKIQAKYDESGITDKPFVIVKADAGTYGMGVMSVKSADEVRGLNRKNRNKMAKVKEGLEVSEVIVQEGIYTYETLNGAVCEPVVYMMDRFVIGGFFRVHEGRGADENLNAGGMVFVPLSNSIPTGNGDNSQEAPEACKRVFEQWDSLGMPRSEKDCDVDNEHNRLYVYGVMARLSLLAASIELEETA | soluble |
| MIRAFLVVALASVAVFSAPIPEVPQNFDDIPAEYKGLIPAEVAEHLKAITAEEKAALKELAQNHKEYKTEEEFKAALKEKSPSLYEKAGKLEALLTAKFEKLDATAQALVKKIIAKGRELHQQYLAGDKPTLDSLKELAKGYIAEYKALSDDAKATITAEFPILTGFFQNEKIQAIVGQYVN | not soluble |
| MSGNQMAMGSEQQQTVGSRTVSVEEVPAVLQLRATQDPPRSQEAMPTRHNVRWEENVIDNENMNKKKTKICCIFHPQNEDEEECNHHSDDDGSSSSGSSSSESENEKDLDFNERRQRRLERRHRKLEKKRSYSPNAYEIQPDYSEYRRKQQEKKDMGHHHHHHSH | soluble |
| MSRVRTKTVKKASRVLIEKYYTRMTNDFHNNKRVCDEVAIIGSKPLRNKIAGYITHLMRRIERGPVRGISIKLQEEERERRDNYMPEISTVDPSQLTSIKVDTDTSDMLKAAGFNLPNVTVEDQGKNKGK | not soluble |
| MAETFKIRKLEISDKRKGFIELLGQLTVTGSVTDEEFDRRFEEIRSYGDDHVICVIEEETSGKIAATGSVMIEKKFLRNCGKAGHIEDVVVDSRFRGKQLGKKVVEFLMDHCKSMGCYKVILDCSVENKVFYEKCGMSNKSIQMSKYFD | soluble |
| AHHHHHHGSGGMTIAEKILATHAGKEEVKPGEIVLAKVDFMFGNDVTTPLAIKTFRKIGVEKVFDPERIAIVLDHFTPNKDIKAAEQCKFSREFAREQGIKWFFEGGNVGVEHCLLPELGLVLPGELIIGADSHTCTYGALGAFATGVGSTDLAVAMATGEAWFRVPETIKFVYEGDLQPWVTSKDLILYTIGDIGVNGALYKVMEFSGEVIEKLSVEQRMTMTNMAIEAGAKTGIIEPDKKTIEYVKGRAKREYKIYKSDEDAKYYKVIEYDVSKIEPQVAFPHLPENTVPISKAAKMNIKIDQVVIGSCTNGRLEDLRMAAEVLEGQKVAPWVRLIILPCSPTVYFKAMKEGLLEIFLEAGAVIGPPTCGPCLGGHMGILASGERAVSTTNRNFVGRMGHPKSEVYLASPYVAAASAILGRIASPEEVVK | soluble |
| MDNLLAQKKPINILLLGTDTGAMGRSWKGRTDTIMMMAINPKTNSTSIVSIPRDSNAIFPDFPQYGVTKINSAYTLGGVGETVKTLDKYYSVPIDGYIMINMGGLKKAIDQVGGIDVTSPLTFDNMGYHFQEGKTYHMDGKKALAFAQLRHGDPRQDYGRQDRDRRVVMALLKKSISPTTLLNTKFLNSISSEMQTDLTMNQMYKIGMDYRHATDNLSQDHAQGVSKQTQNPKFGTMEIEVVSRQERQRVSDKLRAALGLPKVRVAANSASYVMNQLEHHHHHH | soluble |
